Test results taken from patent US20060275823A1 (published 2006).

Molecular target: T1, ICS (pro-IL-1beta-derived epitope)
T1 construct: also called ICS peptide; 14-mer called ICS
T1 peptide: NEAYVHDGPVRSLN
Assay: method not stated; measured in a different context from the cleavage assay, with LEPB lacking a free N-terminus

B1: LEPB (peptide)
peptide: KARKEAELAAATAEQ
notes: In the ICE cleavage experiment it was a synthetic peptide with a free N-terminus; also called synthetic LEPB; 15mer (LEPB)
Kd: 2000 nM
